The text below walks through data of article doi:10.1101/577460.

The target of the assay is microtubules (porcine brain Tubulin) (porcine (brain)) (UniProt P02550). Kind of assay: turbidimetry.

LEM2_(188-212) peptide, sequence (Q8NC56 188-212): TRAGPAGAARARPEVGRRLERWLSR
LEM2_(1-208), sequence (Q8NC56 1-208): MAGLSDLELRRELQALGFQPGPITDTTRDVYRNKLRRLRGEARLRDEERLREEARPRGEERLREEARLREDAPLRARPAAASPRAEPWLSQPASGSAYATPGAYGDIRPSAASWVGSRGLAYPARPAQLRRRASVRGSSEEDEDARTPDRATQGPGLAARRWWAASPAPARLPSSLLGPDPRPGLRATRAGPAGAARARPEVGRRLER

As to “LEM2_(1-208) (from UniProt Q8NC56 1-208) (domain or fragment)”, the half-maximal scattering concentration (MT bundling) was 1.3 µM.

Substance “LEM2_(188-212) peptide (from UniProt Q8NC56 188-212)” had a half maximal concentration (MT bundling) of 85.1 µM.
